Assay results: patent publication US20220048967A1 (published 2022)
Numbered stars: 1 amine (or outer) side, 2 acyl side, 3 side chain; on linkers, the order of the positions; unused ones are H or OH. Square brackets hold non-standard residues; d marks the D form. Side chains are listed from the residue outwards. Ends that are not written are not given here. * marks the point of attachment. C20 diacid = O=C(O)CCCCCCCCCCCCCCCCCCC(=O)*; γGlu = O=C(O)[C@H](CCC(=O)[*:2])N[*:1]; αMeF = C[C@](N)(Cc1ccccc1)C(=O)O; αMeK = C[C@](N)(CCCCN)C(=O)O; Dab = NCC[C@H](N)C(=O)O; AEEA = NCCOCCOCC(=O)O; Aib = CC(C)(N)C(=O)O

T1: human GIP receptor (human, UniProt P48546 22-466)
T1 sequence (looked up): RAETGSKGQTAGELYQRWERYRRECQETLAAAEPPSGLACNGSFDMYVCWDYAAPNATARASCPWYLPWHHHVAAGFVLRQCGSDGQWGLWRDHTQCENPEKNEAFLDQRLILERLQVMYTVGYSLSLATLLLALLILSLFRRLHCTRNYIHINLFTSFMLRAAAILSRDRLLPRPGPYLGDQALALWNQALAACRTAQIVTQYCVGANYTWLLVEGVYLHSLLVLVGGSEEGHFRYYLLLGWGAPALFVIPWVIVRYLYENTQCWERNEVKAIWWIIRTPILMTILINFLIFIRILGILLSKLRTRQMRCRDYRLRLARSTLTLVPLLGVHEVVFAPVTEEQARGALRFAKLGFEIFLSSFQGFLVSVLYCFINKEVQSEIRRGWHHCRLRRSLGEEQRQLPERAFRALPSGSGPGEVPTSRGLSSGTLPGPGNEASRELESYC

B1: Example 319 (peptide)
peptide: Y[Aib]EGTFTSDYSILLDKK([AEEA-AEEA-γGlu-C20 diacid])AQ[Aib]EFIEYLIAGGPSSGAPPPS-NH2
modifications: N-terminus assumed
SMILES: CC[C@H](C)[C@H](NC(=O)[C@H](CC(C)C)NC(=O)[C@H](Cc1ccc(O)cc1)NC(=O)[C@H](CCC(=O)O)NC(=O)[C@@H](NC(=O)[C@H](Cc1ccccc1)NC(=O)[C@H](CCC(=O)O)NC(=O)C(C)(C)NC(=O)[C@H](CCC(N)=O)NC(=O)[C@H](C)NC(=O)[C@H](CCCCNC(=O)COCCOCCNC(=O)COCCOCCNC(=O)CC[C@H](NC(=O)CCCCCCCCCCCCCCCCCCC(=O)O)C(=O)O)NC(=O)[C@H](CCCCN)NC(=O)[C@H](CC(=O)O)NC(=O)[C@H](CC(C)C)NC(=O)[C@H](CC(C)C)NC(=O)[C@@H](NC(=O)[C@H](CO)NC(=O)[C@H](Cc1ccc(O)cc1)NC(=O)[C@H](CC(=O)O)NC(=O)[C@H](CO)NC(=O)[C@@H](NC(=O)[C@H](Cc1ccccc1)NC(=O)[C@@H](NC(=O)CNC(=O)[C@H](CCC(=O)O)NC(=O)C(C)(C)NC(=O)[C@@H](N)Cc1ccc(O)cc1)[C@@H](C)O)[C@@H](C)O)[C@@H](C)CC)[C@@H](C)CC)C(=O)N[C@@H](C)C(=O)NCC(=O)NCC(=O)N1CCC[C@H]1C(=O)N[C@@H](CO)C(=O)N[C@@H](CO)C(=O)NCC(=O)N[C@@H](C)C(=O)N1CCC[C@H]1C(=O)N1CCC[C@H]1C(=O)N1CCC[C@H]1C(=O)N[C@@H](CO)C(N)=O
B2: Example 323 (peptide)
peptide: YXEGTFTSDYSIXLDEKAQXAFIEYLIEGGPSSGAPPPS
modifications: Aib2, αMeL13, K17 conjugated to (2-[2-(2-Amino-ethoxy)-ethoxy]-acetyl)2-(γ-Glu)-CO-(CH2)16-CO2H, Aib20, C-terminal amide (NH2)
B3: Example 324 (peptide)
peptide: YXEGTFTSDYSIXLDKKAQXAFIEYLIAGGPSSGAPPPS
modifications: Aib2, αMeL13, K17 conjugated to (2-[2-(2-Amino-ethoxy)-ethoxy]-acetyl)2-(γ-Glu)-CO-(CH2)18-CO2H (printed "(CH2)1s"), Aib20, C-terminal amide (NH2)
B4: Example 325 (peptide)
peptide: YXEGTXTSDYSILLDKKAQXAFIEYLIEGGPSSGAPPPS
modifications: Aib2, αMeF(2F)6, K17 conjugated to (2-[2-(2-Amino-ethoxy)-ethoxy]-acetyl)2-(γ-Glu)-CO-(CH2)18-CO2H, Aib20, C-terminal amide (NH2)
B5: Example 17 (peptide)
peptide: H[Aib]EGTFTSDYSILLDKIAQK([AEEA-AEEA-γGlu-C20 diacid])AFIEYLLE[Aib]GPSSG-NH2
modifications: N-terminus assumed
SMILES: CC[C@H](C)[C@H](NC(=O)[C@H](CCCCN)NC(=O)[C@H](CC(=O)O)NC(=O)[C@H](CC(C)C)NC(=O)[C@H](CC(C)C)NC(=O)[C@@H](NC(=O)[C@H](CO)NC(=O)[C@H](Cc1ccc(O)cc1)NC(=O)[C@H](CC(=O)O)NC(=O)[C@H](CO)NC(=O)[C@@H](NC(=O)[C@H](Cc1ccccc1)NC(=O)[C@@H](NC(=O)CNC(=O)[C@H](CCC(=O)O)NC(=O)C(C)(C)NC(=O)[C@@H](N)Cc1c[nH]cn1)[C@@H](C)O)[C@@H](C)O)[C@@H](C)CC)C(=O)N[C@@H](C)C(=O)N[C@@H](CCC(N)=O)C(=O)N[C@@H](CCCCNC(=O)COCCOCCNC(=O)COCCOCCNC(=O)CC[C@H](NC(=O)CCCCCCCCCCCCCCCCCCC(=O)O)C(=O)O)C(=O)N[C@@H](C)C(=O)N[C@@H](Cc1ccccc1)C(=O)N[C@H](C(=O)N[C@@H](CCC(=O)O)C(=O)N[C@@H](Cc1ccc(O)cc1)C(=O)N[C@@H](CC(C)C)C(=O)N[C@@H](CC(C)C)C(=O)N[C@@H](CCC(=O)O)C(=O)NC(C)(C)C(=O)NCC(=O)N1CCC[C@H]1C(=O)N[C@@H](CO)C(=O)N[C@@H](CO)C(=O)NCC(N)=O)[C@@H](C)CC

target: human GLP-1 receptor (human, UniProt P43220 24-463); experiment: cell-based or functional assay

Going from B1 to B2, the “hGLP1R GTPgS % Top” value rises from 65.7% to 81.9%.

Going from B3 to B4, the “hGLP1R GTPgS % Top” value rises from 84.5% to 97.9%.

For F[Aib]EGTFTSDYSILLDKK([AEEA-AEEA-γGlu-C20 diacid])AQ[Aib]AFIEYLIEGGPSSGAPPPS-NH2 [Example 326], the “hGLP1R GTPgS % Top” value was 61.6%.

B1 and B2 are within 1.5-fold of each other in “hGLP1R GTPgS Rel EC50” value: 0.657 nM for the first, 0.79 nM for the second.

B3 and B4 are within 1.5-fold of each other in “hGLP1R GTPgS Rel EC50” value: 0.475 nM for the first, 0.414 nM for the second.

F[Aib]EGTFTSDYSILLDKK([AEEA-AEEA-γGlu-C20 diacid])AQ[Aib]AFIEYLIEGGPSSGAPPPS-NH2 [Example 326] was tested, and the “hGLP1R GTPgS Rel EC50” value was 0.663 nM.

target: T1, human GIP receptor; experiment: cell-based or functional assay

Compared with B5, H[Aib]EGTFTSDYSI[αMeF]LDKK([Dab-AEEA-Dab-AEEA-C20 diacid])AQ[αMeK]AFIQYLLA[Aib]GPSSGAPKPS-NH2 [Example 18] is higher in “hGIPR cAMP EC50 ratio” value: 0.0257 for the first, 0.275 for the second.

For H[Aib]EGTFTSDYSI[αMeF]LDKK([Dab-AEEA-Dab-AEEA-C20 diacid])AQ[αMeK]AFIQYLLA[Aib]GPSSGAPPPS-NH2 [Example 19], the “hGIPR cAMP EC50 ratio” value was 0.436.

Going from B5 to H[Aib]EGTFTSDYSI[αMeF]LDKK([Dab-AEEA-Dab-AEEA-C20 diacid])AQ[αMeK]AFIQYLLA[Aib]GPSSGAPKPS-NH2 [Example 18], the “hGIPR cAMP Rel EC50” value falls from 5.81 nM to 0.61 nM (9.5-fold).

H[Aib]EGTFTSDYSI[αMeF]LDKK([Dab-AEEA-Dab-AEEA-C20 diacid])AQ[αMeK]AFIQYLLA[Aib]GPSSGAPPPS-NH2 [Example 19] was tested, and the “hGIPR cAMP Rel EC50” value was 0.386 nM.

target: human GLP-1 receptor (human, UniProt P43220 24-463); experiment: cell-based or functional assay; remark: another data set of the same source

First: B5
Second: H[Aib]EGTFTSDYSI[αMeF]LDKK([Dab-AEEA-Dab-AEEA-C20 diacid])AQ[αMeK]AFIQYLLA[Aib]GPSSGAPKPS-NH2 [Example 18]
The “hGLP1R cAMP EC50 ratio” value of the first is lower: 0.398 for the first, 0.589 for the second.

With H[Aib]EGTFTSDYSI[αMeF]LDKK([Dab-AEEA-Dab-AEEA-C20 diacid])AQ[αMeK]AFIQYLLA[Aib]GPSSGAPPPS-NH2 [Example 19] the “hGLP1R cAMP EC50 ratio” value was 0.532.

Going from B5 to H[Aib]EGTFTSDYSI[αMeF]LDKK([Dab-AEEA-Dab-AEEA-C20 diacid])AQ[αMeK]AFIQYLLA[Aib]GPSSGAPKPS-NH2 [Example 18], the “hGLP1R cAMP Rel EC50” value falls from 0.152 nM to 0.0945 nM (1.6-fold).

For H[Aib]EGTFTSDYSI[αMeF]LDKK([Dab-AEEA-Dab-AEEA-C20 diacid])AQ[αMeK]AFIQYLLA[Aib]GPSSGAPPPS-NH2 [Example 19], the “hGLP1R cAMP Rel EC50” value was 0.104 nM.
